These results are taken from the supplement of paper PMC10567573.

± gives the standard deviation.

This data set is described as follows: protein stability index of a GFP-peptide fusion (GPS, HEK-293T) (PSI 1-6); higher = more stable. The settings on record: c terminus: a fixed tail appended.
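Note: 24-mer peptide tiles fused after GFP, lentivirally expressed, FACS-sorted into six equal bins by GFP/DsRed ratio, decoded by Illumina sequencing, PSI is the read-weighted mean bin number.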

With AAAAAHSTPVRREVTDKEQEFAAR [EPB41L3], the protein stability index amounted to 5.28 ± 0.47 (treatment: DMSO) and 5.18 ± 0.56 (treatment: MLN4924 1 uM, 8 h).

With AAIFSLFFVPLSYLLMVTVILLPY [TMEM175], the protein stability index came out at 2.91 ± 0.11 (treatment: DMSO) and 3.01 ± 0.53 (treatment: MLN4924 1 uM, 8 h).

For the sequence AALEAAGEGLNVIQQTTRYFSTPQ [NANOGP8], the protein stability index by setting is: (treatment: DMSO) 3.3 ± 0.16; (treatment: MLN4924 1 uM, 8 h) 3.31 ± 0.25.

Regarding AARKKYNLLQDSSTSDSDLTCDSS [C18orf25], the protein stability index was found to be 4.96 ± 0.21 (treatment: DMSO) and 4.89 ± 0.23 (treatment: MLN4924 1 uM, 8 h).

Regarding AAVFKETFKSLSHIDPDVLYPSLN [ALG2], the protein stability index runs as follows: (treatment: DMSO) 2.72 ± 0.17; (treatment: MLN4924 1 uM, 8 h) 2.71 ± 0.22.

Regarding ACGVAMELYVFGGVRSREDAQGSE [GAN], the protein stability index by setting is: (treatment: DMSO) 2.22 ± 0.25; (treatment: MLN4924 1 uM, 8 h) 2.35 ± 0.096.

Turning to ACSEDSLFLRCSLRHKDEEEEDDD [DRICH1], the protein stability index is, setting by setting: (treatment: DMSO) 5.32 ± 0.27; (treatment: MLN4924 1 uM, 8 h) 5.24 ± 0.16.

In the case of ACVVQQKDARQWFAELSVDMEKIL [CCNC], the protein stability index is 2.51 ± 0.26 (treatment: DMSO) and 2.42 ± 0.17 (treatment: MLN4924 1 uM, 8 h).

On to ADDLVLTLSNPQMSLEGTEKASWL [ELF3], for which the protein stability index runs as follows: (treatment: DMSO) 3.62 ± 0.29; (treatment: MLN4924 1 uM, 8 h) 3.85 ± 0.26.

Turning to ADHGEPIGRGTKVILHLKEDQTEY [HSP90AB1], the protein stability index runs as follows: (treatment: DMSO) 4.76 ± 0.2; (treatment: MLN4924 1 uM, 8 h) 4.89 ± 0.29.

As for ADPDEMRMQALLIRERILGPSHPD [FEM1C], the protein stability index runs as follows: (treatment: DMSO) 3.94 ± 0.33; (treatment: MLN4924 1 uM, 8 h) 3.94 ± 0.13.

As for ADPVLDLPLPPPPPEPLSQVSMWD [APBB1IP], the protein stability index amounted to 3.46 ± 0.68 (treatment: DMSO) and 3.94 ± 0.62 (treatment: MLN4924 1 uM, 8 h).

For ADSTSFDVQLGDIILTATDGLFDN [PPTC7], the protein stability index is 3.58 ± 0.22 (treatment: DMSO) and 3.68 ± 0.26 (treatment: MLN4924 1 uM, 8 h).

AEAKRDAGIREAKAKQEKVSAQYL [FLOT1]: the protein stability index came out at 4.88 ± 0.32 (treatment: DMSO) and 5.094 ± 0.024 (treatment: MLN4924 1 uM, 8 h).

In the case of AEKKKPKTQIVCKHFLEAIENNKY [ZC3H15], the protein stability index reads like this: (treatment: DMSO) 3.51 ± 0.41; (treatment: MLN4924 1 uM, 8 h) 3.63 ± 0.25.

Turning to AFAPDFKELDENVEYEERESEFDI [RBBP5], the protein stability index came out at 5.38 ± 0.15 (treatment: DMSO) and 5.16 ± 0.41 (treatment: MLN4924 1 uM, 8 h).

As for AFASFTSGVVRIWDLRDQSVVRDL [TLE6], the protein stability index runs as follows: (treatment: DMSO) 2.36 ± 0.47; (treatment: MLN4924 1 uM, 8 h) 2.21 ± 0.35.

For AFQHTPTSITLTASRVSKVNDKRR [KMT2E], the protein stability index runs as follows: (treatment: DMSO) 3.74 ± 0.27; (treatment: MLN4924 1 uM, 8 h) 4.11 ± 0.47.

For the sequence AFQITGVWDASRAPRGTPDPGLGE [PLEKHN1], the protein stability index is, setting by setting: (treatment: DMSO) 3.85 ± 0.31; (treatment: MLN4924 1 uM, 8 h) 3.78 ± 0.21.

As for AFRWGAHLVQHQRIHSGEKPYECN [ZNF232], the protein stability index is, setting by setting: (treatment: DMSO) 2.79 ± 0.25; (treatment: MLN4924 1 uM, 8 h) 2.87 ± 0.19.

In the case of AFSHKSMRDRHVNMHLNLRPFDCP [ZBTB22], the protein stability index was 2.4 ± 0.15 (treatment: DMSO) and 2.47 ± 0.19 (treatment: MLN4924 1 uM, 8 h).

For AFTEYVHAYFRGHSPSCLARVTGE [FCHO1], the protein stability index was 2.1 ± 0.28 (treatment: DMSO) and 2.22 ± 0.25 (treatment: MLN4924 1 uM, 8 h).

As for AGGGGGGAGAGAPGGGRLLLSTSL [INTS3], the protein stability index is, setting by setting: (treatment: DMSO) 3.19 ± 0.12; (treatment: MLN4924 1 uM, 8 h) 2.94 ± 0.24.

Regarding AGLENTVAETECRYALQLQQIQGL [KRT13], the protein stability index is, setting by setting: (treatment: DMSO) 3.12 ± 0.24; (treatment: MLN4924 1 uM, 8 h) 2.91 ± 0.19.

Consider AGTPGYLSPEVLRKEAYGKPVDIW [CAMK2B], for which the protein stability index runs as follows: (treatment: DMSO) 3.29 ± 0.15; (treatment: MLN4924 1 uM, 8 h) 3.31 ± 0.14.

In the case of AHFYGVKLEGKVPMHKLFLEMLEA [ESRRA], the protein stability index is 2.46 ± 0.51 (treatment: DMSO) and 2.12 ± 0.034 (treatment: MLN4924 1 uM, 8 h).

For the sequence AHSAAVTASGDCYTFGSNQHGQLG [NEK8], the protein stability index was found to be 3.81 ± 0.2 (treatment: DMSO) and 3.94 ± 0.35 (treatment: MLN4924 1 uM, 8 h).

For AILVKVQLDALPFFVITMIKIVLI [SLC29A1], the protein stability index is, setting by setting: (treatment: DMSO) 3.23 ± 0.22; (treatment: MLN4924 1 uM, 8 h) 3.23 ± 0.37.

Consider AIWDDTDSMYGECRTYIIHYYLMD [EFHC1], for which the protein stability index reads like this: (treatment: DMSO) 2.83 ± 0.52; (treatment: MLN4924 1 uM, 8 h) 2.67 ± 0.64.

As for AKVDSSGVIDLFGDAFGSSASEPQ [SNAP91], the protein stability index was found to be 4.47 ± 0.23 (treatment: DMSO) and 4.57 ± 0.19 (treatment: MLN4924 1 uM, 8 h).

Consider AKVESMDQEIKFFRCLFEAEITQI [KRT71], for which the protein stability index stood at 2.01 ± 0.51 (treatment: DMSO) and 2.19 ± 0.15 (treatment: MLN4924 1 uM, 8 h).

AKVYVGVKQEIAEMRIPALNAYMK [NCF4] returned a protein stability index (treatment: DMSO) of 2.13 ± 0.2 and a protein stability index (treatment: MLN4924 1 uM, 8 h) of 2.32 ± 0.29.

ALALANSDSVHIEDAEAVEQLREA [ESRRA]: the protein stability index is 5.18 ± 0.3 (treatment: DMSO) and 5.26 ± 0.28 (treatment: MLN4924 1 uM, 8 h).

ALHPERAMDNHSDSEEELAAFCPQ [RETREG3]: the protein stability index worked out at 5.42 ± 0.12 (treatment: DMSO) and 5.37 ± 0.24 (treatment: MLN4924 1 uM, 8 h).

Regarding ALPPLRTRSKSDPVLHPSEERAAP [FAM189A2], the protein stability index by setting is: (treatment: DMSO) 5.64 ± 0.39; (treatment: MLN4924 1 uM, 8 h) 5.58 ± 0.2.

Take ALRPTAFSGCLNCSKVSELTERLK [EMID1]: the protein stability index is, setting by setting: (treatment: DMSO) 2.74 ± 0.37; (treatment: MLN4924 1 uM, 8 h) 2.97 ± 0.47.
